Changes are numbered by the printed parent chain.
T1: human ST2L (human, UniProt Q01638 19-328, limits assumed)
T1 construct: also called IL-1R4; IL-33Ra
T1 sequence (looked up): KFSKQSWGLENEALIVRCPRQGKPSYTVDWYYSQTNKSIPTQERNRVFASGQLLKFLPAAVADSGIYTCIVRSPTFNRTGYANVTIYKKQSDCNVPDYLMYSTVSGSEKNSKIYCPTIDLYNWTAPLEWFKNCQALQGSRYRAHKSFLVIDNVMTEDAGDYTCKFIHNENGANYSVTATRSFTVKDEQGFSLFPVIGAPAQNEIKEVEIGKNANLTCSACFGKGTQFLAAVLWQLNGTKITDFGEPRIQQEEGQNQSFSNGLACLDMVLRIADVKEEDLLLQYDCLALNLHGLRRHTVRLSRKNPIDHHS

B1: STLM103 (antibody, from another filing, V domains shown)
VH: EVQLLESGGGLVQPGGSLRLSCAASGFTFSFYDMFWVRQAPGKGLEWVSSIRGEGGRTDYADSVKGRFTISRDNSKNTLYLQMNSLRAEDTAVYYCARDPWSTEGSFFVLDYWGQGTLVTVSS
VL: EIVLTQSPATLSLSPGERATLSCRASQSVDDDLAWYQQKPGQAPRLLIYDASNRATGIPARFSGSGSGTDFTLTISSLEPEDFAVYYCQQYIGAPITFGQGTKVEIK
B2: STLM107 (antibody, from another filing, V domains shown)
VH: B1 VH with F31D, D33A, S50A, R52E, R57E, D59N
VL: B1 VL
B3: STLM217 (antibody, from another filing, V domains shown)
VH: B1 VH with F31V, S50D, R52K, R57E, D59S
VL: B1 VL
B4: STLM218 (antibody, from another filing, V domains shown)
VH: B1 VH with F31V, Y32D, D33S, R52E, E54N, R57A, D59Y
VL: B1 VL
B5: STLM219 (antibody, from another filing, V domains shown)
VH: B1 VH with F31G, S50D, R52G, R57S, D59N
VL: B1 VL
B6: STLM220 (antibody, from another filing, V domains shown)
VH: B1 VH with S50D, R57G, D59A
VL: B1 VL
B7: STLM221 (antibody, from another filing, V domains shown)
VH: B1 VH with F31I, S50Y, R57D, D59N
VL: B1 VL
B8: STLM222 (antibody, from another filing, V domains shown)
VH: B1 VH with F31I, D33S, S50D, R52G, R57G, D59S
VL: B1 VL
B9: STLM108 (antibody, from another filing, V domains shown)
VH: B1 VH with F31I, F35I, S50T, R52K, R57G, D59Y
VL: B1 VL
B10: STLM226 (antibody, from another filing, V domains shown)
VH: EVQLVQSGAEVKKPGATVKISCKVSAFNIKDDYMHWVQQAPGKGLEWMGRIDPAIGNTEYAEKFQGRVTITADTSTDTAYMELSSLRSEDTAVYYCATGDFYAMAYWGQGTLVTVSS
VL: DIQMTQSPSSLSASVGDRVTITCITNTDIDDVIHWYQQKPGKAPKLLIYEGNTLRPGVPSRFSGSGSGTDFTLTISSLQPEDFATYYCLQSDNLLTFGQGTKLEIK
B11: STLM227 (antibody, from another filing, V domains shown)
VH: B10 VH
VL: B10 VL with M4L, S10F, D70E, L94M
B12: STLM228 (antibody, from another filing, V domains shown)
VH: B10 VH
VL: B10 VL with S10T, D70E, E81D, L94M
B13: STLM229 (antibody, from another filing, V domains shown)
VH: B10 VH
VL: B10 VL with L11V, L94M
B14: STLM230 (antibody, from another filing, V domains shown)
VH: B10 VH
VL: B10 VL with L94M
B15: STLM231 (antibody, from another filing, V domains shown)
VH: B10 VH
VL: B10 VL with A43V, F83V, L94M
B16: STLM232 (antibody, from another filing, V domains shown)
VH: B10 VH
VL: B10 VL with L73F, F83I, L94M
B17: STLM123 (antibody, from another filing, V domains shown)
VH: B1 VH with F31D, D33A, S50A, R52E, R57E, D59N
VL: B1 VL with G93T, I96L
B18: STLM124 (antibody, from another filing, V domains shown)
VH: B1 VH with F31I, F35I, S50T, R52K, R57G, D59Y
VL: B1 VL with G93T, I96L
B19: STLM206 (antibody, from another filing, V domains shown)
VH: B1 VH with F31I, F35I, S50T, R57S, D59Y
VL: B1 VL with G93T, I96L
B20: STLM207 (antibody, from another filing, V domains shown)
VH: B1 VH with F31S, F35I, S50T, R57T, D59A
VL: B1 VL with G93T, I96L
B21: STLM208 (antibody, V domains shown)
VH: B1 VH with F31I, F35I, R57G, D59Y
VL: B1 VL with G93T, I96L
B22: STLM209 (antibody, from another filing, V domains shown)
VH: B1 VH with F31I, F35I, S50T, R57G, D59S
VL: B1 VL with G93T, I96L
B23: STLM210 (antibody, from another filing, V domains shown)
VH: B1 VH with F31D, Y32D, D33A, F35I, S50Y, R52G, E54N, R57T, D59Y
VL: EIVLTQSPATLSLSPGERATLSCRASQSVDDDLAWYQQKPGQAPRLLIYDASNRATGIPARFSGSGSGTDFTLTISSLEPEDFAVYYCQQYNDAITFGQGTKVEIK
B24: STLM211 (antibody, from another filing, V domains shown)
VH: B1 VH with F31G, D33A, F35I, S50Y, R52E, R57E, D59Y
VL: B23 VL
B25: STLM212 (antibody, from another filing, V domains shown)
VH: B1 VH with F31V, F35I, S50T, R57G, D59Y
VL: B23 VL
B26: STLM213 (antibody, from another filing, V domains shown)
VH: B1 VH with F35I, S50T, R57D, D59N
VL: B1 VL with G93D, I96L

What was measured:
human ST2L = biological target: T1, human ST2L; experiment: affinity table; method not stated
cyno ST2L (cyno) = experiment: affinity table; method not stated

Row | Binder | Kd (human ST2L) [nM] | koff (human ST2L) [s⁻¹] | kon (human ST2L) [M⁻¹ s⁻¹] | Kd (cyno ST2L (cyno)) [nM] | koff (cyno ST2L (cyno)) [s⁻¹] | kon (cyno ST2L (cyno)) [M⁻¹ s⁻¹]
1 | B1 | 0.041 | 0.000163 | 3.97e+06 | 0.031 | 0.000202 | 6.42e+06
2 | B2 | 0.012 | 0.000341 | 2.9e+07 | 0.007 | 0.00055 | 1e+08
3 | B3 | 0.017 | 0.000126 | 7.27e+06 | 0.004 | 0.000138 | 3.81e+07
4 | B4 | 0.023 | 0.000224 | 9.89e+06 | 0.018 | 0.000265 | 1.45e+07
5 | B5 | 0.027 | 0.000201 | 7.54e+06 | 0.022 | 0.00023 | 1.07e+07
6 | B6 | 0.016 | 9.53e-05 | 5.8e+06 | 0.009 | 0.00014 | 1.6e+07
7 | B7 | 0.035 | 9.61e-05 | 2.73e+06 | 0.022 | 0.00013 | 6.04e+06
8 | B8 | 0.037 | 0.000301 | 8.22e+06 | 0.029 | 0.000345 | 1.18e+07
9 | B9 | 0.097 | 0.000222 | 2.29e+06 | 0.029 | 0.000598 | 2.05e+07
10 | B10 | 0.09 | 0.00193 | 2.16e+07 | 0.301 | 0.0301 | 1e+08
11 | B11 | 0.064 | 0.0017 | 2.66e+07 | 0.294 | 0.0294 | 1e+08
12 | B12 | 0.052 | 0.00104 | 2.01e+07 | 0.155 | 0.0155 | 1e+08
13 | B13 | 0.035 | 0.000445 | 1.29e+07 | 0.085 | 0.0085 | 1e+08
14 | B14 | 0.038 | 0.000426 | 1.11e+07 | 0.144 | 0.0073 | 5.06e+07
15 | B15 | 0.046 | 0.000913 | 1.97e+07 | 0.172 | 0.0143 | 8.27e+07
16 | B16 | 0.025 | 0.000449 | 1.78e+07 | 0.08 | 0.00797 | 1e+08
17 | B17 | 0.015 | 0.000208 | 1.37e+07 | 0.005 | 0.000519 | 1e+08
18 | B18 | 0.046 | 0.000756 | 1.65e+07 | 0.03 | 0.00257 | 8.71e+07
19 | B19 | 0.025 | 0.00016 | 6.39e+06 | 0.006 | 0.000583 | 9.4e+07
20 | B20 | 0.048 | 0.000395 | 8.33e+06 | 0.021 | 0.00207 | 1e+08
21 | B21 | 0.011 | 6.76e-05 | 5.97e+06 | 0.005 | 7.02e-05 | 1.39e+07
22 | B22 | 0.026 | 0.00017 | 6.59e+06 | 0.009 | 0.000311 | 3.39e+07
23 | B23 | 0.019 | 0.000227 | 1.21e+07 | 0.009 | 0.000528 | 5.7e+07
24 | B24 | 0.029 | 0.000483 | 1.7e+07 | 0.014 | 0.00139 | 1e+08
25 | B25 | 0.032 | 0.000398 | 1.24e+07 | 0.024 | 0.000346 | 1.43e+07
26 | B26 | 0.014 | 0.000108 | 7.54e+06 | 0.008 | 0.000124 | 1.64e+07
